The values below are quoted from earlier work in publication PMC2786309 (Bioconjugate chemistry, 2009).

Series [1] deals with MC1 receptor present on melanoma cells. As to conditions: statement in method text, no reference given.
Series [2] deals with B16/F1 melanoma-bearing C57 mice. As to conditions: mouse, in vivo.

NDP-MSH: in series [1], the “Affinity for the MC1 receptor” value was “picomolar affinity”. For the substance “^111In-DOTA-[β-Ala^3, Nle^4, Asp^5, D-Phe^7, Lys^10]-α-MSH3-10 [^111In-DOTA-MSHoct]”, the Tumor uptake in series [2] (4 h) is 4.31 ± 0.30 % ID/g. With “^111In-DOTA-Gly-Glu-c[Lys-Nle-Glu-His-DPhe-Arg-Trp-Gly-Arg-Pro-Val-Asp] (FRWGRPVD; not fully specified; 111In-DOTA, Gly-Glu-Lys-Nle-Glu-His N-term, cyclic; printed: Phe-Arg-Trp-Gly-Arg-Pro-Val-Asp) [^111In-DOTA-GlyGlu-CycMSH]”, the “Renal uptake reduction compared to 111In-DOTA-CycMSH” value in series [2] was 44%. Further, the Melanoma uptake in series [2] (2 h) is recorded as 10.40 ± 1.40 % ID/g.
